Laboratory results: article PMC7966745, “Elucidation of transient protein-protein interactions within carrier protein-dependent biosynthesis” (Communications Biology, 2021)

Biological target: T1, octanoyl-AcpP (C8-AcpP), E. coli acyl carrier protein (E. coli, UniProt P0A6A8 2-78, octanoyl pantethenamide probe loaded (stable C8 acyl analog); uniformly 15N labeled and perdeuterated)
T1 construct: acyl carrier protein AcpP, E. coli; PDB 2FAD is heptanoyl-AcpP, used for docking only; also called 15N-C8-AcpP; source: E. coli BL21 (DE3), M9 minimal media with 15N NH4Cl and D2O, purified; made apo with P. aeruginosa ACPH, then loaded with CoaA, CoaD, CoaE and Sfp
T1 sequence (P0A6A8 2-78): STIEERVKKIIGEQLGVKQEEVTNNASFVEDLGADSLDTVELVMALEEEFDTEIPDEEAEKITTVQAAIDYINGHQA
Assay: NMR titration; 1H-15N HSQC of 15N, perdeuterated C8-AcpP titrated with unlabeled partner, at least five points; 37 °C; 10 mM potassium phosphate pH 7.4, 0.5 mM TCEP, 0.1% NaN3; TITAN 2D lineshape analysis, flexible stoichiometry model
Conditions: both partners purified

B1: FabF, E. coli elongating ketosynthase (enzyme)
chain: SKRRVVVTGLGMLSPVGNTVESTWKALLAGQSGISLIDHFDTSAYATKFAGLVKDFNCEDIISRKEQRKMDAFIQYGIVAGVQAMQDSGLEITEENATRIGAAIGSGIGGLGLIEENHTSLMNGGPRKISPFFVPSTIVNMVAGHLTIMYGLRGPSISIATACTSGVHNIGHAARIIAYGDADVMVAGGAEKASTPLGVGGFGAARALSTRNDNPQAASRPWDKERDGFVLGDGAGMLVLEEYEHAKKRGAKIYAELVGFGMSSDAYHMTSPPENGAGAALAMANALRDAGIEASQIGYVNAHGTSTPAGDKAEAQAVKTIFGEAASRVLVSSTKSMTGHLLGAAGAVESIYSILALRDQAVPPTINLDNPDEGCDLDFVPHEARQVSGMEYTLCNSFGFGGTNGSLIFKKI
notes: ketosynthase FabF (3-oxoacyl-ACP synthase 2), E. coli; also called KS; source: E. coli BL21 (DE3), purified (Ni-IMAC, Superdex 75)
  stoichiometry N: ~1
